The MegaScale stability set (Tsuboyama et al. 2023)

B1: EHEE_rd2_0191 (parent)
chain: TTEYTFTDDEEARRAIEELKKRGLTFRYEKHGTTWRVRVD
B2: EHEE_rd4_0726 (parent)
chain: DIEITTNGEEDAKRVIKELQKRNLEYHIEVHGNQWVIKVR

Variants of: B1
Assay: folding stability dG (cDNA display proteolysis); higher = more stable
Settings: PBS, room temperature

Folding stability dG [kcal/mol]: each site, then its substitutions
R38: W 4.04 | Y 3.62
V39: A 0.227 | E -0.709 | F 1.24 | H -0.386 | I 2.02 | L 1.6 | M 1.02 | P -0.946 | Q -0.645 | S -0.316 | T 0.562 | W 0.937 | Y 0.601
D40: A 2.04 | C 3.04 | E 2.31 | F 3.35 | G 2.1 | H 2.19 | I 2.83 | K 1.9 | L 2.78 | M 2.68 | N 2.04 | P 1.86 | Q 2.19 | R 1.95 | S 2.17 | T 2.38 | V 2.54 | W 3.19 | Y 3.29

Variants of: B2
Assay: as above
Settings: PBS, room temperature

Folding stability dG [kcal/mol], by site and new letter:
D1: A 2.34 | C 2.75 | E 2.59 | F 3.31 | G 2.43 | H 2.48 | I 2.87 | K 1.97 | L 2.76 | M 2.87 | N 2.37 | P 2.29 | Q 2.36 | R 2.24 | S 2.39 | T 2.63 | V 2.77 | W 4.08 | Y 3.38
I2: A 1.53 | C 2.82 | D 1.41 | E 1.54 | F 3.22 | G 1.4 | H 2.06 | K 1.58 | L 2.52 | M 2.43 | N 1.49 | P 1.06 | Q 1.69 | R 1.97 | S 1.65 | T 1.91 | V 2.15 | W 3.69 | Y 3.27
E3: A 2.16 | D 1.78 | F 2.93 | G 1.25 | H 2.31 | I 3.45 | K 2.18 | L 2.76 | M 2.74 | N 1.87 | P 0.973 | Q 2.37 | R 2.34 | S 2.5 | T 3.12 | V 3.33 | W 3.35 | Y 3.11
I4: A 0.165 | D -0.582 | E 0.017 | F 2.12 | G -0.292 | H 0.697 | K 0.22 | L 1.66 | M 1.23 | N -0.395 | P 0.107 | Q 0.094 | R 0.4 | S 0.002 | T 0.528 | V 1.57 | W 1.99 | Y 2.15
T5: A 1.84 | C 2.86 | D 1 | E 1.66 | F 2.77 | G 1.08 | H 2.61 | I 3.17 | K 2.32 | L 2.49 | M 2.39 | N 1.75 | P 1.59 | Q 2 | R 2.92 | S 1.96 | V 3.03 | W 3.48 | Y 2.91
T6: A 2.62 | D 0.026 | E 0.908 | F 2.32 | G 2.65 | H 0.768 | I 3.08 | K 1.22 | L 2.84 | M 2.38 | N 0.494 | P 1.51 | Q 0.841 | R 1.53 | S 1.47 | V 3.55 | W 1.04 | Y 1.59
N7: A 2.19 | C 2.87 | D 2.4 | E 2.41 | F 2.75 | G 1.78 | H 2.42 | I 2.43 | K 2.1 | L 2.47 | M 2.54 | P 1.36 | Q 2.4 | R 2.25 | S 2.26 | T 2.34 | V 2.29 | W 3.1 | Y 3.03
G8: A 1.91 | C 2.33 | D 2.64
